Measured values taken from the supplement of paper PMC6757056.
± gives the standard deviation of the averaged measurements.

B1: library; a variant is named by its letters at N, in order (parent)
chain: GCUGUCACCGGUGCUUGGUACGUUAUAUUCAGCCGGUCUGAUGAGUCUNNNNNNAGACGAAACAGC

What was measured:
(6R,S)-folinic acid [1] = variants of: B1; experiment: normalized RNA/DNA level without ligand (relative to sTRSVctl = 100) (log10 (% of sTRSVctl)); HEK293T overexpressing SLC46A1; higher = less ribozyme self-cleavage, higher mRNA level; conditions: without (6R,S)-folinic acid; ligand present: no
In short: (§1)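 Library plasmids encoding reporter-linked ribozyme switches (mCherry, or eGFP for some folinic acid experiments) were transfected into HEK293T at 4 µg per 6-well well. Ligand, when used, was added 1 h before transfection. Total RNA was extracted with EDTA 72 h later, then reverse-transcribed, amplified, barcoded and sequenced. RNA level was RNA reads over DNA reads, divided by a spiked-in non-cleaving control (or the top 25 sequences), ×100, log10; only sequences with ≥100 DNA reads were kept.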

(6R,S)-folinic acid [2] = variants of: B1; experiment: normalized RNA/DNA level with ligand (relative to sTRSVctl = 100) (log10 (% of sTRSVctl)); HEK293T overexpressing SLC46A1; ligand concentration (+) RNA-Seq: 6 mM; higher = less ribozyme self-cleavage, higher mRNA level; conditions: with (6R,S)-folinic acid; ligand present: yes
In short: as §1

| Variant | normalized RNA/DNA level without ligand (log10) ((6R,S)-folinic acid [1]) | normalized RNA/DNA level with ligand (log10) ((6R,S)-folinic acid [2]) |
| --- | --- | --- |
| UCCGCC | 2.03 ± 0.021 | 2.0083 ± 0.00058 |
| UCCGCU | 2.068 ± 0.01 | 2.042 ± 0.015 |
| UCCGCA | 2.01 ± 0.03 | 2.01 ± 0.063 |
| GCCUGC | 2.052 ± 0.01 | 2.046 ± 0.013 |
| GCCUGA | 2.036 ± 0.0063 | 2.07 ± 0.028 |
| GCCUGG | 2.001 ± 0.011 | 2.03 ± 0.034 |
| GCCUGU | 2.057 ± 0.0027 | 2.06 ± 0.038 |
| ACCUGU | 2.01 ± 0.025 | 2 ± 0.024 |
| ACCUGC | 2.07 ± 0.016 | 2.04 ± 0.044 |
| ACCUGG | 1.9783 ± 0.00064 | 2.04 ± 0.034 |
| ACCUGA | 1.999 ± 0.003 | 2.03 ± 0.029 |
| CCCCCU | 2.063 ± 0.017 | 2.01 ± 0.037 |
| ACCUAA | 2.021 ± 0.013 | 1.994 ± 0.018 |
| ACCUAC | 2.0248 ± 0.0018 | 2.02 ± 0.028 |
| UCCGUU | 2.049 ± 0.0025 | 2.05 ± 0.068 |
| UCCGUA | 1.96 ± 0.029 | 2.004 ± 0.0049 |
| UCCGUC | 2.1142 ± 0.002 | 2.0759 ± 0.0012 |
| ACGAGU | 2.027 ± 0.0034 | 2.028 ± 0.0065 |
| ACGAGC | 2.005 ± 0.012 | 2.041 ± 0.019 |
| ACGAGG | 1.86 ± 0.034 | 1.995 ± 0.011 |

| Variant | normalized RNA/DNA level without ligand (log10) ((6R,S)-folinic acid [1]) | normalized RNA/DNA level with ligand (log10) ((6R,S)-folinic acid [2]) |
| --- | --- | --- |
| ACGAGA | 1.968 ± 0.011 | 2.03 ± 0.028 |
| GCCGUC | 2.08 ± 0.031 | 2.081 ± 0.0053 |
| GCCGUG | 1.994 ± 0.012 | 2.033 ± 0.018 |
| GCCGUA | 2.002 ± 0.0022 | 2.02 ± 0.05 |
| GCCGUU | 2.067 ± 0.017 | 2.04 ± 0.006 |
| CCCGCA | 2.06 ± 0.035 | 2.071 ± 0.02 |
| CCCGCC | 2.0796 ± 0.00065 | 2.05 ± 0.03 |
| CCCGCU | 2.109 ± 0.014 | 2.08 ± 0.068 |
| CCCGCG | 2.09 ± 0.023 | 2.01 ± 0.034 |
| CCGCCU | 2.087 ± 0.0066 | 2.08 ± 0.03 |
| CCGCCG | 2.06 ± 0.024 | 2.08 ± 0.03 |
| CCGCCC | 2.07 ± 0.025 | 2.04 ± 0.073 |
| CCGCCA | 2.0675 ± 0.0011 | 2.04 ± 0.035 |
| UCCUGG | 1.91 ± 0.023 | 2.04 ± 0.023 |
| UCCUGU | 1.999 ± 0.018 | 2.05 ± 0.043 |
| UCCUGC | 2.057 ± 0.01 | 2.077 ± 0.014 |
| UCCUGA | 2.025 ± 0.0055 | 2.045 ± 0.018 |
| CCGAUU | 2.06 ± 0.051 | 2.053 ± 0.018 |
| CCGAUC | 2.055 ± 0.018 | 2.03 ± 0.03 |
| CCGAUG | 2 ± 0.023 | 1.99 ± 0.036 |

| Variant | normalized RNA/DNA level without ligand (log10) ((6R,S)-folinic acid [1]) | normalized RNA/DNA level with ligand (log10) ((6R,S)-folinic acid [2]) |
| --- | --- | --- |
| CCGAUA | 1.996 ± 0.0089 | 2.011 ± 0.018 |
| CCCCGU | 2.05 ± 0.028 | 2.047 ± 0.01 |
| CCCCGC | 2.09 ± 0.0037 | 2.05 ± 0.034 |
| CCCCGG | 2.083 ± 0.0038 | 2.06 ± 0.022 |
| GCGCGC | 2.055 ± 0.0073 | 2.001 ± 0.011 |
| GCGCGG | 2.064 ± 0.0074 | 2.03 ± 0.031 |
| GCGCGA | 2.047 ± 0.011 | 2.052 ± 0.018 |
| GCGCGU | 2.055 ± 0.011 | 2.04 ± 0.056 |
| UCGAAC | 2.027 ± 0.01 | 2.006 ± 0.0085 |
| UCGAAA | 1.927 ± 0.0063 | 1.979 ± 0.0054 |
| CCCUUU | 2.06 ± 0.024 | 2.06 ± 0.044 |
| CCCUUA | 2.065 ± 0.0096 | 2.08 ± 0.064 |
| CCCUUG | 2.069 ± 0.0099 | 2.091 ± 0.017 |
| GCCUAG | 1.98 ± 0.023 | 2.05 ± 0.032 |
| GCCUAA | 2.006 ± 0.019 | 2.022 ± 0.012 |
| GCCUAC | 2.056 ± 0.0034 | 2.086 ± 0.0065 |
| GCCUAU | 2.027 ± 0.018 | 2.065 ± 0.02 |
| GCGAGU | 1.99 ± 0.04 | 2.03 ± 0.051 |
